In patent US20110091994A1, “Methods for Screening Compounds for Treating and/or Preventing an Hepatitis C Virus Infection” (priority 2008, published 2011):

B1: ARHGEF6 (protein, UniProt Q15052 1-776, looked up)
Rho guanine nucleotide …: MNPEEQIVTWLISLGVLESPKKTICDPEEFLKSSLKNGVVLCKLINRLMPGSVEKFCLDPQTEADCINNINDFLKGCATLQVEIFDPDDLYSGVNFSKVLSTLLAVNKATEDQLSERPCGRSSSLSAANTSQTNPQGAVSSTVSGLQRQSKTVEMTENGSHQLIVKARFNFKQTNEDELSVCKGDIIYVTRVEEGGWWEGTLNGRTGWFPSNYVREIKSSERPLSPKAVKGFETAPLTKNYYTVVLQNILDTEKEYAKELQSLLVTYLRPLQSNNNLSTVEVTSLLGNFEEVCTFQQTLCQALEECSKFPENQHKVGGCLLSLMPHFKSMYLAYCANHPSAVNVLTQHSDELEQFMENQGASSPGILILTTNLSKPFMRLEKYVTLLQELERHMEDTHPDHQDILKAIVAFKTLMGQCQDLRKRKQLELQILSEPIQAWEGEDIKNLGNVIFMSQVMVQYGACEEKEERYLMLFSNVLIMLSASPRMSGFIYQGKIPIAGTVVTRLDEIEGNDCTFEITGNTVERIVVHCNNNQDFQEWLEQLNRLIRGPASCSSLSKTSSSSCSAHSSFSSTGQPRGPLEPPQIIKPWSLSCLRPAPPLRPSAALGYKERMSYILKESSKSPKTMKKFLHKRKTERKPSEEEYVIRKSTAALEEDAQILKVIEAYCTSANFQQGHGSSTRKDSIPQVLLPEEEKLIIEETRSNGQTIMEEKSLVDTVYALKDEVRELKQENKRMKQCLEEELKSRRDLEKLVRRLLKQTDECIRGESSSKTSILP
B2: ANKRD28 (protein, UniProt O15084 1-1053, looked up)
Serine/threonine-protein …: MAFLKLRDQPSLVQAIFNGDPDEVRALIFKKEDVNFQDNEKRTPLHAAAYLGDAEIIELLILSGARVNAKDSKWLTPLHRAVASCSEEAVQVLLKHSADVNARDKNWQTPLHIAAANKAVKCAEALVPLLSNVNVSDRAGRTALHHAAFSGHGEMVKLLLSRGANINAFDKKDRRAIHWAAYMGHIEVVKLLVSHGAEVTCKDKKSYTPLHAAASSGMISVVKYLLDLGVDMNEPNAYGNTPLHVACYNGQDVVVNELIDCGAIVNQKNEKGFTPLHFAAASTHGALCLELLVGNGADVNMKSKDGKTPLHMTALHGRFSRSQTIIQSGAVIDCEDKNGNTPLHIAARYGHELLINTLITSGADTAKRGIHGMFPLHLAALSGFSDCCRKLLSSGFDIDTPDDFGRTCLHAAAAGGNLECLNLLLNTGADFNKKDKFGRSPLHYAAANCNYQCLFALVGSGASVNDLDERGCTPLHYAATSDTDGKCLEYLLRNDANPGIRDKQGYNAVHYSAAYGHRLCLQLIASETPLDVLMETSGTDMLSDSDNRATISPLHLAAYHGHHQALEVLVQSLLDLDVRNSSGRTPLDLAAFKGHVECVDVLINQGASILVKDYILKRTPIHAAATNGHSECLRLLIGNAEPQNAVDIQDGNGQTPLMLSVLNGHTDCVYSLLNKGANVDAKDKWGRTALHRGAVTGHEECVDALLQHGAKCLLRDSRGRTPIHLSAACGHIGVLGALLQSAASMDANPATADNHGYTALHWACYNGHETCVELLLEQEVFQKTEGNAFSPLHCAVINDNEGAAEMLIDTLGASIVNATDSKGRTPLHAAAFTDHVECLQLLLSHNAQVNSVDSTGKTPLMMAAENGQTNTVEMLVSSASAELTLQDNSKNTALHLACSKGHETSALLILEKITDRNLINATNAALQTPLHVAARNGLTMVVQELLGKGASVLAVDENGYTPALACAPNKDVADCLALILATMMPVSSSSPLSSLTFNAINRYTNTSKTVSFEALPIMRNEPSSYCSFNNIGGEQEYLYTDVDELNDSDSETY
B3: ARFIP2 (protein, UniProt P53365 1-341, looked up)
Arfaptin-2: MTDGILGKAATMEIPIHGNGEARQLPEDDGLEQDLQQVMVSGPNLNETSIVSGGYGGSGDGLIPTGSGRHPSHSTTPSGPGDEVARGIAGEKFDIVKKWGINTYKCTKQLLSERFGRGSRTVDLELELQIELLRETKRKYESVLQLGRALTAHLYSLLQTQHALGDAFADLSQKSPELQEEFGYNAETQKLLCKNGETLLGAVNFFVSSINTLVTKTMEDTLMTVKQYEAARLEYDAYRTDLEELSLGPRDAGTRGRLESAQATFQAHRDKYEKLRGDVAIKLKFLEENKIKVMHKQLLLFHNAVSAYFAGNQKQLEQTLQQFNIKLRPPGAEKPSWLEEQ

target: T1, HCV proteins (Hepatitis C virus genotype 1b, UniProt Q9WMX2); assay: Validation by Y2H pairwise matrices; format: binding; conditions: validation of interaction with HCV protein NS3;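 also: yeast two-hybrid pairwise tests of interactions first found in Y2H screens of HCV bait proteins against human cDNA libraries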
T1 construct: expressed in transfected cells
T1 sequence (Q9WMX2 1027-1657): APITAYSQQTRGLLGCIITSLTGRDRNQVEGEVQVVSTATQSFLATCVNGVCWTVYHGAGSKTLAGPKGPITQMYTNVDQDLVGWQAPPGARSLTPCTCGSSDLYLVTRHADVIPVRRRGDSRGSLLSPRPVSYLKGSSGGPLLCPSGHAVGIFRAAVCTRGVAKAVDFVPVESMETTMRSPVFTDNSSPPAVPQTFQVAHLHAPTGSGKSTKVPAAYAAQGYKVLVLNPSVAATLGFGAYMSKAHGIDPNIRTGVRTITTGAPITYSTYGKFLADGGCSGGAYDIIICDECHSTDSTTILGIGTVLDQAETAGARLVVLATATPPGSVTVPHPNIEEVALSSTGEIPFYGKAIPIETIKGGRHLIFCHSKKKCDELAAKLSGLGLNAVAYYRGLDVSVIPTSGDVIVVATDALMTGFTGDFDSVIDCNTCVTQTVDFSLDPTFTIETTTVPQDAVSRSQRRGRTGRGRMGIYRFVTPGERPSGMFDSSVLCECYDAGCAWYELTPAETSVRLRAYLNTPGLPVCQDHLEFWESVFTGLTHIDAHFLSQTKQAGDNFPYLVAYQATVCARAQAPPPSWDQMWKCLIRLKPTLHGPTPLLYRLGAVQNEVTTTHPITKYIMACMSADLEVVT
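For IMAP Y2H IMAP1 (number of IST) in this document: yeast two-hybrid screens using HCV genotype 1b proteins fused to Gal4-DB as baits against prey cDNA libraries from human spleen and foetal brain, IMAP1 via transformation and IMAP2 via mating.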
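For Interaction with viral protein in this document: yeast two-hybrid screens using HCV genotype 1b proteins fused to Gal4-DB as baits against prey cDNA libraries from human spleen and foetal brain, IMAP1 via transformation and IMAP2 via mating.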

Q: How did the Y2H matrices turn out when B1 was run?
A: +

Q: With B2 as the molecule, how does the Y2H matrices read?
A: +

Q: Which Y2H matrices does the source give for B3 here?
A: +

tested on: HCV ORFs (Gal4-DB fusions); assay: not given; format: binding, HCV genotype 1b, isolate con1; conditions: human protein listed by gene symbol; the value names the HCV protein it interacts with

Q: For B1, which “Interaction with viral protein” value is on record?
A: NS3

Q: With B2 as the molecule, how does the “Interaction with viral protein” value read?
A: NS3

Q: How did the “Interaction with viral protein” value turn out when B3 was run?
A: NS3

target: T2, HCV ORFs (Gal4-DB fusions) (Hepatitis C virus genotype 1b, UniProt Q9WMX2); assay: not given; format: binding, HCV genotype 1b, isolate con1; conditions: HCV protein NS3 as bait; human protein as prey
T2 construct: expressed in transfected cells; host or cells: Saccharomyces cerevisiae MAV203 (IMAP1) / AH109 (IMAP2)
T2 sequence (Q9WMX2 1027-1657): as above

Q: With B1 as the molecule, how does the “IMAP Y2H IMAP1 (number of IST)” value read?
A: 1

Q: For B2, which “IMAP Y2H IMAP1 (number of IST)” value is on record?
A: 1

Q: B3 was tested. Which “IMAP Y2H IMAP1 (number of IST)” value did it give?
A: 1
